According to IntAct's records for PubMed 20850366:

B1: Small glutamine-rich tetratricopeptide repeat-containing protein 2 (Saccharomyces cerevisiae), Q12118 (parent)
chain: MSASKEEIAALIVNYFSSIVEKKEISEDGADSLNVAMDCISEAFGFEREAVSGILGKSEFKGQHLADILNSASRVPESNKKDDAENVEINIPEDDAETKAKAEDLKMQGNKAMANKDYELAINKYTEAIKVLPTNAIYYANRAAAHSSLKEYDQAVKDAESAISIDPSYFRGYSRLGFAKYAQGKPEEALEAYKKVLDIEGDNATEAMKRDYESAKKKVEQSLNLEKTVPEQSRDADVDASQGASAGGLPDLGSLLGGGLGGLMNNPQLMQAAQKMMSNPGAMQNIQKMMQDPSIRQMAEGFASGGGTPNLSDLMNNPALRNMAGNLFGGAGAQSTDETPDNENKQ
partner: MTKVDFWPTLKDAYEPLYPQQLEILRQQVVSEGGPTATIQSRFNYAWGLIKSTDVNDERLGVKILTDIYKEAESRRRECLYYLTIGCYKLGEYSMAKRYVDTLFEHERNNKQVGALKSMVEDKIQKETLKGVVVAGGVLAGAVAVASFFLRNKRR
B2: Mitochondrial fission 1 protein (Saccharomyces cerevisiae), P40515 (parent)
chain: B1 partner
partner: B1 chain
B3: Small glutamine-rich tetratricopeptide repeat-containing protein 2 (Saccharomyces cerevisiae), Q12118 (parent)
chain: B1 chain

Variants of: B1
Conditions: with fis1_yeast FIS1, P40515

Variant	effect of a mutation on the interaction
R171A;R175A	with no effect

Variants of: B2
Conditions: with sgt2_yeast SGT2, Q12118

Variant	effect of a mutation on the interaction
G136L;G137L;G141L;A142L	increasing interaction strength

Variants of: B3
Conditions: with sec22_yeast SEC22, P22214
Sequence of sec22_yeast SEC22, P22214 (P22214 whole entry): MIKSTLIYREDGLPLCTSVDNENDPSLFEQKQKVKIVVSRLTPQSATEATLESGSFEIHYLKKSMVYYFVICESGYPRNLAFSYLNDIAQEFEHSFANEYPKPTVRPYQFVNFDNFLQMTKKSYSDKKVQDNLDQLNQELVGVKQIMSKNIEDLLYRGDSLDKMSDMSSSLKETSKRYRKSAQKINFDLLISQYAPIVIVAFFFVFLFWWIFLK

Variant	effect of a mutation on the interaction
R171A;R175A	with no effect
